Like-named read-outs stand apart in the source and are kept apart here.

Results on two substances are retold here after US20240132591A1.

Holding throughout (assay): ELISA on insulin-coated plate, 100 nM
In assay [1] the target is Insulin (UniProt P01308).
Assay [2] has as its target Insulin (UniProt P01308). This is another data set of the same source.
For assay [3], the target named is Insulin (UniProt P01308). The source holds these as a separate data set.
Assay [4] deals with Insulin (UniProt P01308). The source holds these as a separate data set.
Assay [5] concerns the target Insulin (UniProt P01308). The source holds these as a separate data set.
In assay [6] the target is Insulin (UniProt P01308). The source holds these as a separate data set.

Turning to Elotuzumab (antibody), the Insulin polyreactivity score stood at 1 with Insulin [1]; 1.09 in the assay with Insulin [2]; 1.01 with Insulin [3]; 3.43 with Insulin [4]; 1.25 with Insulin [5].
On to Lenzilumab (antibody), for which the Insulin polyreactivity score with Insulin [1] was 1.52; with Insulin [2], 7.93; with Insulin [6], 69.2; with Insulin [3], 7.87; with Insulin [4] it was 69.2; with Insulin [5], 21.3.
